Measured values: IntAct's records for PubMed 25910212

B1: DNA ligase 4 (Homo sapiens), P49917 (parent)
chain: MAASQTSQTVASHVPFADLCSTLERIQKSKGRAEKIRHFREFLDSWRKFHDALHKNHKDVTDSFYPAMRLILPQLERERMAYGIKETMLAKLYIELLNLPRDGKDALKLLNYRTPTGTHGDAGDFAMIAYFVLKPRCLQKGSLTIQQVNDLLDSIASNNSAKRKDLIKKSLLQLITQSSALEQKWLIRMIIKDLKLGVSQQTIFSVFHNDAAELHNVTTDLEKVCRQLHDPSVGLSDISITLFSAFKPMLAAIADIEHIEKDMKHQSFYIETKLDGERMQMHKDGDVYKYFSRNGYNYTDQFGASPTEGSLTPFIHNAFKADIQICILDGEMMAYNPNTQTFMQKGTKFDIKRMVEDSDLQTCYCVFDVLMVNNKKLGHETLRKRYEILSSIFTPIPGRIEIVQKTQAHTKNEVIDALNEAIDKREEGIMVKQPLSIYKPDKRGEGWLKIKPEYVSGLMDELDILIVGGYWGKGSRGGMMSHFLCAVAEKPPPGEKPSVFHTLSRVGSGCTMKELYDLGLKLAKYWKPFHRKAPPSSILCGTEKPEVYIEPCNSVIVQIKAAEIVPSDMYKTGCTLRFPRIEKIRDDKEWHECMTLDDLEQLRGKASGKLASKHLYIGGDDEPQEKKRKAAPKMKKVIGIIEHLKAPNLTNVNKISNIFEDVEFCVMSGTDSQPKPDLENRIAEFGGYIVQNPGPDTYCVIAGSENIRVKNIILSNKHDVVKPAWLLECFKTKSFVPWQPRFMIHMCPSTKEHFAREYDCYGDSYFIDTDLNQLKEVFSGIKNSNEQTPEEMASLIADLEYRYSWDCSPLSMFRRHTVYLDSYAVINDLSTKNEGTRLAIKALELRFHGAKVVSCLAEGVSHVIIGEDHSRVADFKAFRRTFKRKFKILKESWVTDSIDKCELQEENQYLI
B2: U4/U6 small nuclear ribonucleoprotein Prp31 (Homo sapiens), Q8WWY3 (parent)
chain: MSLADELLADLEEAAEEEEGGSYGEEEEEPAIEDVQEETQLDLSGDSVKTIAKLWDSKMFAEIMMKIEEYISKQAKASEVMGPVEAAPEYRVIVDANNLTVEIENELNIIHKFIRDKYSKRFPELESLVPNALDYIRTVKELGNSLDKCKNNENLQQILTNATIMVVSVTASTTQGQQLSEEELERLEEACDMALELNASKHRIYEYVESRMSFIAPNLSIIIGASTAAKIMGVAGGLTNLSKMPACNIMLLGAQRKTLSGFSSTSVLPHTGYIYHSDIVQSLPPDLRRKAARLVAAKCTLAARVDSFHESTEGKVGYELKDEIERKFDKWQEPPPVKQVKPLPAPLDGQRKKRGGRRYRKMKERLGLTEIRKQANRMSFGEIEEDAYQEDLGFSLGHLGKSGSGRVRQTQVNEATKARISKTLQRTLQKQSVVYGGKSTIRDRSSGTASSVAFTPLQGLEIVNPQAAEKKVAEANQKYFSSMAEFLKVKGEKSGLMST
partner: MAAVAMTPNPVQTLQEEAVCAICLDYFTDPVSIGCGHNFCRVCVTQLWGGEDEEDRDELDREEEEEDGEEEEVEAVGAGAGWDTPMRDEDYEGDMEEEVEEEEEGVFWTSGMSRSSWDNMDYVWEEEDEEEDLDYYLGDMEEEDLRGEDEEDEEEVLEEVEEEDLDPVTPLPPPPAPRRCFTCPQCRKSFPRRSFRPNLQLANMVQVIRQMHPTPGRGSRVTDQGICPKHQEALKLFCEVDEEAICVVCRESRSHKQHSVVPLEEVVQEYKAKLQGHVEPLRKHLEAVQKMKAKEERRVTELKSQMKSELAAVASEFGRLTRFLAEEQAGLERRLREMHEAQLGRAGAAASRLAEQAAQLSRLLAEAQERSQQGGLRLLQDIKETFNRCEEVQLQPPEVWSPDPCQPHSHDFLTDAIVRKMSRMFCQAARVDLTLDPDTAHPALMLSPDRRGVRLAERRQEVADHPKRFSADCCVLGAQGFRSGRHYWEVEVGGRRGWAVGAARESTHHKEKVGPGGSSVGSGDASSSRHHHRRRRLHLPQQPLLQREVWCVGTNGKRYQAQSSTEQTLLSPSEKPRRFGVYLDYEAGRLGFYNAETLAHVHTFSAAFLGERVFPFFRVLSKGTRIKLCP
B3: U4/U6 small nuclear ribonucleoprotein Prp3 (Homo sapiens), O43395 (parent)
chain: MALSKRELDELKPWIEKTVKRVLGFSEPTVVTAALNCVGKGMDKKKAADHLKPFLDDSTLRFVDKLFEAVEEGRSSRHSKSSSDRSRKRELKEVFGDDSEISKESSGVKKRRIPRFEEVEEEPEVIPGPPSESPGMLTKLQIKQMMEAATRQIEERKKQLSFISPPTPQPKTPSSSQPERLPIGNTIQPSQAATFMNDAIEKARKAAELQARIQAQLALKPGLIGNANMVGLANLHAMGIAPPKVELKDQTKPTPLILDEQGRTVDATGKEIELTHRMPTLKANIRAVKREQFKQQLKEKPSEDMESNTFFDPRVSIAPSQRQRRTFKFHDKGKFEKIAQRLRTKAQLEKLQAEISQAARKTGIHTSTRLALIAPKKELKEGDIPEIEWWDSYIIPNGFDLTEENPKREDYFGITNLVEHPAQLNPPVDNDTPVTLGVYLTKKEQKKLRRQTRREAQKELQEKVRLGLMPPPEPKVRISNLMRVLGTEAVQDPTKVEAHVRAQMAKRQKAHEEANAARKLTAEQRKVKKIKKLKEDISQGVHISVYRVRNLSNPAKKFKIEANAGQLYLTGVVVLHKDVNVVVVEGGPKAQKKFKRLMLHRIKWDEQTSNTKGDDDEESDEEAVKKTNKCVLVWEGTAKDRSFGEMKFKQCPTENMAREHFKKHGAEHYWDLALSESVLESTD
partner: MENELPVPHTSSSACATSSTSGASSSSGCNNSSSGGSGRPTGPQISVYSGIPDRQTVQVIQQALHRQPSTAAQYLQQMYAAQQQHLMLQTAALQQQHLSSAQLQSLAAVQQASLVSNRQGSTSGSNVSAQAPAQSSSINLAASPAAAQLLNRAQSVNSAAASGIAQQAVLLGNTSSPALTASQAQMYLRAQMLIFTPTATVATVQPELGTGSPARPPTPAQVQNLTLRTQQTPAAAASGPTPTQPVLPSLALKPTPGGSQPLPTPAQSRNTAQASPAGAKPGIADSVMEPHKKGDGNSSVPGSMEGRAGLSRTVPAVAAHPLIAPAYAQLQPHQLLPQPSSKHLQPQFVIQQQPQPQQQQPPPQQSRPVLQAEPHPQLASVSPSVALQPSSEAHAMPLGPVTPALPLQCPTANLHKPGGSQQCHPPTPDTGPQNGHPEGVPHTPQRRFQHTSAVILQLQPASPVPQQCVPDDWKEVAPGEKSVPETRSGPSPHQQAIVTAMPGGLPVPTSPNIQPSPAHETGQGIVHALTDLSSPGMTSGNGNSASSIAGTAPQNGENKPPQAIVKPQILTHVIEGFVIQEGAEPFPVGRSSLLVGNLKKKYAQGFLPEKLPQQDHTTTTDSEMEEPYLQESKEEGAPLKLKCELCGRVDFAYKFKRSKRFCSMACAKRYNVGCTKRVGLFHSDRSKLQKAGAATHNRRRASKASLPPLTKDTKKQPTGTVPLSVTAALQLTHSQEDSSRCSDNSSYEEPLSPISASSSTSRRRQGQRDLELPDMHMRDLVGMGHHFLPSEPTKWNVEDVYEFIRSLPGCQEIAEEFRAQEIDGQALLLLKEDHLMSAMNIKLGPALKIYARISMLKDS
B4: Torsin-1A (Homo sapiens), O14656 (parent)
chain: MKLGRAVLGLLLLAPSVVQAVEPISLGLALAGVLTGYIYPRLYCLFAECCGQKRSLSREALQKDLDDNLFGQHLAKKIILNAVFGFINNPKPKKPLTLSLHGWTGTGKNFVSKIIAENIYEGGLNSDYVHLFVATLHFPHASNITLYKDQLQLWIRGNVSACARSIFIFDEMDKMHAGLIDAIKPFLDYYDLVDGVSYQKAMFIFLSNAGAERITDVALDFWRSGKQREDIKLKDIEHALSVSVFNNKNSGFWHSSLIDRNLIDYFVPFLPLEYKHLKMCIRVEMQSRGYEIDEDIVSRVAEEMTFFPKEERVFSDKGCKTVFTKLDYYYDD
partner: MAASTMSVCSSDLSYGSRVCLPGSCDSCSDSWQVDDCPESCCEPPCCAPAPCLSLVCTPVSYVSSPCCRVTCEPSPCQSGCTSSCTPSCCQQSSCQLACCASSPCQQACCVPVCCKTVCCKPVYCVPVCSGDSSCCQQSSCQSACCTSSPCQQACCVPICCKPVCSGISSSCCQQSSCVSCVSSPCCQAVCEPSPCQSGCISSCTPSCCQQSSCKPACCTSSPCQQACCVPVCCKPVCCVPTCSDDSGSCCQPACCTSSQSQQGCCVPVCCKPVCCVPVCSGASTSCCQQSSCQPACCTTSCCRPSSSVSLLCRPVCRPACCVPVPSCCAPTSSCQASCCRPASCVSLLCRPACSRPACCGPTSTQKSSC
B5: Carbonic anhydrase-related protein (Homo sapiens), P35219 (parent)
chain: MADLSFIEDTVAFPEKEEDEEEEEEGVEWGYEEGVEWGLVFPDANGEYQSPINLNSREARYDPSLLDVRLSPNYVVCRDCEVTNDGHTIQVILKSKSVLSGGPLPQGHEFELYEVRFHWGRENQRGSEHTVNFKAFPMELHLIHWNSTLFGSIDEAVGKPHGIAIIALFVQIGKEHVGLKAVTEILQDIQYKGKSKTIPCFNPNTLLPDPLLRDYWVYEGSLTIPPCSEGVTWILFRYPLTISQLQIEEFRRLRTHVKGAELVEGCDGILGDNFRPTQPLSDRVIRAAFQ
partner: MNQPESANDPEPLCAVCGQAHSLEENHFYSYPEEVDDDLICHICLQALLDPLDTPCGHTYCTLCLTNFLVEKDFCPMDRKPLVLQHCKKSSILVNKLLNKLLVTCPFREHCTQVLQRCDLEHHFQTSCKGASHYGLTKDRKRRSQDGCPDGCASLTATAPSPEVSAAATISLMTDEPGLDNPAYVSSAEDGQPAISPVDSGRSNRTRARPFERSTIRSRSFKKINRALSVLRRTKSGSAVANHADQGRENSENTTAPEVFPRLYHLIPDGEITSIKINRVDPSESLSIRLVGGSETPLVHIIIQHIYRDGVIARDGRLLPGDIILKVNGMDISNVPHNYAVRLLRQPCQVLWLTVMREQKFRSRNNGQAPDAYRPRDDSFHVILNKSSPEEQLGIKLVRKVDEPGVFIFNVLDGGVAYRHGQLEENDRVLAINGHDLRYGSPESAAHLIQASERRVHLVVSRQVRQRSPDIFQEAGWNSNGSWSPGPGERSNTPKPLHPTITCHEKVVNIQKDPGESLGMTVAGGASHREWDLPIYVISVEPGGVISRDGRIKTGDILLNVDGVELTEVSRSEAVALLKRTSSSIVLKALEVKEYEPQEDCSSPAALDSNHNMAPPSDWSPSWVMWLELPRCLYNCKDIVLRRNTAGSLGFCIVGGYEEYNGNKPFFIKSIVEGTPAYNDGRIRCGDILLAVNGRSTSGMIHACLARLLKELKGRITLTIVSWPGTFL
B6: Acetylcholine receptor subunit gamma (Homo sapiens), P07510-2 (parent)
chain: MHGGQGPLLLLLLLAVCLGAQGRNQEERLLADLMQNYDPNLRPAERDSDVVNVSLKLTLTNLISLNEREEALTTNVWIEMQWCDYRLRWDPRDYEGLWVLRVPSTMVWRPDIVLENKSQTYSTNEIDLQLSQEDGQTIEWIFIDPEAFTENGEWAIQHRPAKMLLDPAAPAQEAGHQKVVFYLLIQRKPLFYVINIIAPCVLISSVAILIHFLPAKAGGQKCTVAINVLLAQTVFLFLVAKKVPETSQAVPLISKYLTFLLVVTILIVVNAVVVLNVSLRSPHTHSMARGVRKVFLRLLPQLLRMHVRPLAPAAVQDTQSRLQNGSSGWSITTGEEVALCLPRSELLFQQWQRQGLVAAALEKLEKGPELGLSQFCGSLKQAAPAIQACVEACNLIACARHQQSHFDNGNEEWFLVGRVLDRVCFLAMLSLFICGTAGIFLMAHYNRVPALPFPGDPRPYLPSPD
partner: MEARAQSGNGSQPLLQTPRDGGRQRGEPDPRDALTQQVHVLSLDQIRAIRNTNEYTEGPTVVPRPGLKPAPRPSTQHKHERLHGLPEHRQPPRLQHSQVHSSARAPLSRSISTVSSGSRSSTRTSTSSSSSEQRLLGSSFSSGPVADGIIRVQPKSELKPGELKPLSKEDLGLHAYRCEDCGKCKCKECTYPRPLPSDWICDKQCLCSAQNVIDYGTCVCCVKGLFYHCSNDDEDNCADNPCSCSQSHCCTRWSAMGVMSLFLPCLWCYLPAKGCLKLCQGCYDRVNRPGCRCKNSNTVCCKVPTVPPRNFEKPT

Variants of: B1
Settings: with xrcc4_human XRCC4, Q13426
xrcc4_human XRCC4, Q13426, sequence (Q13426 whole entry): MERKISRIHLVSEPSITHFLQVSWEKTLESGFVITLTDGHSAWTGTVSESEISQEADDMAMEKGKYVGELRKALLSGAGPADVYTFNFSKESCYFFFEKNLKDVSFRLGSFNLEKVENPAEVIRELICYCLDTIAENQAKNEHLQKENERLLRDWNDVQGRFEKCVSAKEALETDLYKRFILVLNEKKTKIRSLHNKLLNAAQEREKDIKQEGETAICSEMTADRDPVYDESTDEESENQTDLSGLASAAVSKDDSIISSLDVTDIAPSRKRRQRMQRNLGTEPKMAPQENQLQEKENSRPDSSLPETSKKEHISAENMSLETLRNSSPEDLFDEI

effect of a mutation on the interaction | Variant
with no effect | T9I
disrupting interaction strength | A3V

Variants of: B2
Settings: with tri41_human TRIM41, Q8WV44

effect of a mutation on the interaction | Variant
with no effect | L107V

Variants of: B3
Settings: with PHC2, Q8IXK0-5

effect of a mutation on the interaction | Variant
disrupting interaction strength | P493S
disrupting interaction strength | T494M
disrupting interaction strength | A489D

Variants of: B4
Settings: with kr107_human KRTAP10-7, P60409

effect of a mutation on the interaction | Variant
with no effect | D216H
with no effect | R288Q

Variants of: B5
Settings: with lnx1_human LNX1, Q8TBB1

effect of a mutation on the interaction | Variant
disrupting interaction strength | S100P

Variants of: B6
Settings: with spy2_human SPRY2, O43597

effect of a mutation on the interaction | Variant
disrupting interaction strength | R187C
